Consider 4 molecules from US20260374828 (published 2026).

This assay concerns the target Keap1 Kelch domain (UniProt Q14145). The experiment in a line: other TR-FRET.

Where no end group is shown, it is not given here. [ ]: non-standard residue; d: D form.

Sequence of Keap1 Kelch domain (Q14145 whole entry, the tested form may be a part): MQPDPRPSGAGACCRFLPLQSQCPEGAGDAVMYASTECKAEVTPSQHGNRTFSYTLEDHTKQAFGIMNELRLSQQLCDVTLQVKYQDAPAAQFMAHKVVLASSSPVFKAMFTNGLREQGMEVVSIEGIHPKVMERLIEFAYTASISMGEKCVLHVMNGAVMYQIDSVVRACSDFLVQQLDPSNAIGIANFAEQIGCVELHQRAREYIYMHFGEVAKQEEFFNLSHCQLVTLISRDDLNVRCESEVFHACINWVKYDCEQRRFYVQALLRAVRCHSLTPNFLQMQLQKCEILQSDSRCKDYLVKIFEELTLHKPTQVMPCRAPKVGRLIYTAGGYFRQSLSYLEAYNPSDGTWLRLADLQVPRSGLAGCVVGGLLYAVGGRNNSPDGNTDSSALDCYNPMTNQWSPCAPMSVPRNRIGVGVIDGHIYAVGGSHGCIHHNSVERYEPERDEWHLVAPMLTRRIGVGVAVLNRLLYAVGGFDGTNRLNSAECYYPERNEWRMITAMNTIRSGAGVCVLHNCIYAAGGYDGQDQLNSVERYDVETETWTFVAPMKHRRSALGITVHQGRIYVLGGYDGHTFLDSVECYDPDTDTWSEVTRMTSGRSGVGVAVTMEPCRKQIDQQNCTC

B1: Peptide 1-13 (peptide)
chain: Ac-DELEPLTGFRR[dR][dR]-NH2
SMILES: CC(=O)N[C@@H](CC(=O)O)C(=O)N[C@@H](CCC(=O)O)C(=O)N[C@@H](CC(C)C)C(=O)N[C@@H](CCC(=O)O)C(=O)N1CCC[C@H]1C(=O)N[C@@H](CC(C)C)C(=O)N[C@H](C(=O)NCC(=O)N[C@@H](Cc1ccccc1)C(=O)N[C@@H](CCCNC(=N)N)C(=O)N[C@@H](CCCNC(=N)N)C(=O)N[C@H](CCCNC(=N)N)C(=O)N[C@H](CCCNC(=N)N)C(N)=O)[C@@H](C)O
The term IC50 denotes the concentration needed to halve the response being measured. Low values mean greater potency, high ones weaker potency. B1: the IC50 was 8.8 nM.

B2: Peptide 1-12 (peptide)
chain: Ac-DELEPLTGF[dR][dR]RR-NH2
SMILES: CC(=O)N[C@@H](CC(=O)O)C(=O)N[C@@H](CCC(=O)O)C(=O)N[C@@H](CC(C)C)C(=O)N[C@@H](CCC(=O)O)C(=O)N1CCC[C@H]1C(=O)N[C@@H](CC(C)C)C(=O)N[C@H](C(=O)NCC(=O)N[C@@H](Cc1ccccc1)C(=O)N[C@H](CCCNC(=N)N)C(=O)N[C@H](CCCNC(=N)N)C(=O)N[C@@H](CCCNC(=N)N)C(=O)N[C@@H](CCCNC(=N)N)C(N)=O)[C@@H](C)O
In turn, B2 gave an IC50 of 13.3 nM.
For DELEPLTGF[dR][dR]RR (also: polynorbornene brush polymer conjugate, multivalent) [PLP 1-12], half-maximal inhibition (IC50) was put at 0.17 nM.
As for RRDELEPLTGFRR (also: polynorbornene brush polymer conjugate, multivalent) [PLP 1-3], the figure is 0.12 nM.
